According to patent publication US20150258192A1, “COMPOSITIONS AND METHODS FOR PREVENTING OR TREATING CHRONIC LUNG ALLOGRAFT DYSFUNCTION (CLAD) AND IDIOPATHIC PULMONARY FIBROSIS (IPF)” (priority 2014, published 2015):
No end group written: not given here.

biological target: TrkA(h) (Homo sapiens, UniProt P04629); test: Kinase Profiling Assay; format: biochemical; conditions: peptide 100 μM
Procedure: (§1) Every kinase activity measurement was conducted in duplicate.
(§2) Specifically, in these assays, a positively charged substrate is phosphorylated with a radiolabeled phosphate group from an ATP if the kinase is not inhibited by an inhibitor peptide. The positively charged substrate then is attracted to a negatively charged filter membrane, quantified with a scintillation counter, and compared to a 100% activity control.
(§3) In addition to determining the IC50 of the compound, the specificity of MK2 inhibitory peptides was assessed by examining activities of all 266 human kinases available for testing in the Millipore kinase profiling service (Table 1).

TrkA(h), sequence (P04629 33-796): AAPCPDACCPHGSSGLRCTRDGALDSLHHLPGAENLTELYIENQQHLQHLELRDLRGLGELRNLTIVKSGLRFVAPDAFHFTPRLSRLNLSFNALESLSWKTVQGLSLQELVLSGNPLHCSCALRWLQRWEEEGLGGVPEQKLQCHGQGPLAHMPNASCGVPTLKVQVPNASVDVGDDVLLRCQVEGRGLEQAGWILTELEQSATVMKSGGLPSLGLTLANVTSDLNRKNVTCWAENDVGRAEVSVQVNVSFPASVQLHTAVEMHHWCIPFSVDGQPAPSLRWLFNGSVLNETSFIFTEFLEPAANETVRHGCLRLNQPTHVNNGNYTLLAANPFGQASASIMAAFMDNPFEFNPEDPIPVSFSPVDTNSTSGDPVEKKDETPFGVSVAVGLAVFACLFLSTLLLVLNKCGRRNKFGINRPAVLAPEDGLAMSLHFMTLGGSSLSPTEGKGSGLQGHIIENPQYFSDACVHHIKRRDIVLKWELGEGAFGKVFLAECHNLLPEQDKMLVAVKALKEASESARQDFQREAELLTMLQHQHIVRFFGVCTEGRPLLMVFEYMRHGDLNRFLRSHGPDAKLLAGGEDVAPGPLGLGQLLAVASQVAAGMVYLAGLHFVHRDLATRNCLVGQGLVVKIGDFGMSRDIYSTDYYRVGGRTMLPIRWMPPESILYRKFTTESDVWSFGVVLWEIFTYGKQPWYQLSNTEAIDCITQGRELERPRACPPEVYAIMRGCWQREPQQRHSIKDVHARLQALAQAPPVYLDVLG

Compared with FAKLAARLYRKALARQLGVAA [MMI-0300], “HRRIKAWLKKIKALARQLGVAA (Mammal) [MMI-0500]” is lower in “% activity” value: 25% for the first, 24% for the second.

Compared with KAFAKLAARLYRKALARQLGVAA [MMI-0400], YARAAARQARAKALARQLGVAA [MMI-0100] is higher in “% activity” value: 17% for the first, 74% for the second.

biological target: Abl(h) (Homo sapiens, UniProt P00519); test: Kinase Profiling Assay; format: biochemical; conditions: peptide 100 μM
Sequence (P00519 whole entry): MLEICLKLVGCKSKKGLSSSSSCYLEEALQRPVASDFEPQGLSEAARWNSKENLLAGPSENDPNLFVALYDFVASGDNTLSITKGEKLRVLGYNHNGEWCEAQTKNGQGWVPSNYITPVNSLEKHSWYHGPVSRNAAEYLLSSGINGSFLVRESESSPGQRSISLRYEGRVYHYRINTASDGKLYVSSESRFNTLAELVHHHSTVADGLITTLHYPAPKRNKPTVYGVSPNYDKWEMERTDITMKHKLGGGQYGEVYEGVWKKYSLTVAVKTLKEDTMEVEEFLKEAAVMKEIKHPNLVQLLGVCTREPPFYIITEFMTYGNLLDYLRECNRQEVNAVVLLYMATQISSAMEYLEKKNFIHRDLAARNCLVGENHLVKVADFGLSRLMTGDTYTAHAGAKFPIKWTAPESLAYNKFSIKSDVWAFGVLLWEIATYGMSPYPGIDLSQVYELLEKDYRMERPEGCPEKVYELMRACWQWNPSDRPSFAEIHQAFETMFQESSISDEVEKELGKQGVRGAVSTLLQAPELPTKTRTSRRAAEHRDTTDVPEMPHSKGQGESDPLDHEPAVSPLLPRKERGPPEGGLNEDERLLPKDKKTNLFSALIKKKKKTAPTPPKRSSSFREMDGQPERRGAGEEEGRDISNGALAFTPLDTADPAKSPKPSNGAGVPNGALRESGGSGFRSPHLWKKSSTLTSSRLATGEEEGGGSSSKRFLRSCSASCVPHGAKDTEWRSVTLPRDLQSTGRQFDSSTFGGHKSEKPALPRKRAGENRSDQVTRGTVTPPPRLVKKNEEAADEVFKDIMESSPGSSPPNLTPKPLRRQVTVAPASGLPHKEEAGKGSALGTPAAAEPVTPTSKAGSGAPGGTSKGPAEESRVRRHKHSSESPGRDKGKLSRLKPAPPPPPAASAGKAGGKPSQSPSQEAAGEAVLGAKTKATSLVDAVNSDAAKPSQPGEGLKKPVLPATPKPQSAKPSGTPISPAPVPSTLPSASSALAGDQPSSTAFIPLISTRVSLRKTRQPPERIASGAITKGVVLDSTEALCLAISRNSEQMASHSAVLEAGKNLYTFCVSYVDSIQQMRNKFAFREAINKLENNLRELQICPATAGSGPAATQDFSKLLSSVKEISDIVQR
Procedure: as §1, §2, §3

First: FAKLAARLYRKALARQLGVAA [MMI-0300]
Second: HRRIKAWLKKIKALARQLGVAA (Mammal) [MMI-0500]
The “% activity” value of the first is higher: 69% for the first, 16% for the second.

In the case of KAFAKLAARLYRKALARQLGVAA [MMI-0400], the “% activity” value is reported as 84%.

biological target: Flt1(h) (Homo sapiens, UniProt P17948); test: Kinase Profiling Assay; format: biochemical; conditions: peptide 100 μM
Sequence (P17948 27-1338): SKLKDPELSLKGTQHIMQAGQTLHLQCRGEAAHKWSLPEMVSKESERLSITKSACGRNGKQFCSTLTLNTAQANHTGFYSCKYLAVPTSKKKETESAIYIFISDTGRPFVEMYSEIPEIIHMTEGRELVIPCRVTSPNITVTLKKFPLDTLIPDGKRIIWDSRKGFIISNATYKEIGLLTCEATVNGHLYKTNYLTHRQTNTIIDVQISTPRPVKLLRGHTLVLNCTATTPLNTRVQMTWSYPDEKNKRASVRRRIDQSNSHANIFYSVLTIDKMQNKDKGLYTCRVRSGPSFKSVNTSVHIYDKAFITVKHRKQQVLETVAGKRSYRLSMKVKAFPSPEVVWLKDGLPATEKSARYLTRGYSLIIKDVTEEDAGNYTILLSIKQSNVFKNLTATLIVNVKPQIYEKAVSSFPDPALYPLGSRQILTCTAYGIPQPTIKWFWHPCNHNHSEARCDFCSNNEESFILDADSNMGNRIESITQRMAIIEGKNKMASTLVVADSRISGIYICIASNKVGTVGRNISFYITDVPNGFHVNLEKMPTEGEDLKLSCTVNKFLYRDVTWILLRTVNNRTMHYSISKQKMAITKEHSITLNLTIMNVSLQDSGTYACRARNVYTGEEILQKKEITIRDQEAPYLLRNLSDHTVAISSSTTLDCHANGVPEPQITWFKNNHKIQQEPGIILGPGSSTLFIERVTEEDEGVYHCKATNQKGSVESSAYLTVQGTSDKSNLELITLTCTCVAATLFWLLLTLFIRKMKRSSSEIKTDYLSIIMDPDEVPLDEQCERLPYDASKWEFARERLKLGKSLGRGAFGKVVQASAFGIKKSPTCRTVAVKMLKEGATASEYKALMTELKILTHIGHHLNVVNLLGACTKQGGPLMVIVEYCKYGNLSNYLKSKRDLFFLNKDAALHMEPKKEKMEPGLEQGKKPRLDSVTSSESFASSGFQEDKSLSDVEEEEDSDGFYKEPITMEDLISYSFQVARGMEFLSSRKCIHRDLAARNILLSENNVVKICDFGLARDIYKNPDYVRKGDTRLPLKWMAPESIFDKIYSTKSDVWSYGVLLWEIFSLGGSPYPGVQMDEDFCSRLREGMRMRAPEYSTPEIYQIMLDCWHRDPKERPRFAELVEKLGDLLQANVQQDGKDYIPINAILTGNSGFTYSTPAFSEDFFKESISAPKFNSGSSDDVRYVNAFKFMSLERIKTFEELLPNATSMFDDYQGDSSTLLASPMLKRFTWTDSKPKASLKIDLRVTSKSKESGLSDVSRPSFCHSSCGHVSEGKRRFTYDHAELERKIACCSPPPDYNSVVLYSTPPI
Procedure: as §1, §2, §3

First: FAKLAARLYRKALARQLGVAA [MMI-0300]
Second: HRRIKAWLKKIKALARQLGVAA (Mammal) [MMI-0500]
The “% activity” value of the first is higher: 69% for the first, 27% for the second.

Going from KAFAKLAARLYRKALARQLGVAA [MMI-0400] to “YARAAARQARAKALNRQLGVA (Mammal) [MMI-0200]”, the “% activity” value rises from 48% to 96%.

biological target: T1, IKKβ(h) (Homo sapiens, UniProt O14920); test: Kinase Profiling Assay; format: biochemical; conditions: peptide 100 μM
T1 construct: purchased Millipore
T1 sequence (O14920 1-756): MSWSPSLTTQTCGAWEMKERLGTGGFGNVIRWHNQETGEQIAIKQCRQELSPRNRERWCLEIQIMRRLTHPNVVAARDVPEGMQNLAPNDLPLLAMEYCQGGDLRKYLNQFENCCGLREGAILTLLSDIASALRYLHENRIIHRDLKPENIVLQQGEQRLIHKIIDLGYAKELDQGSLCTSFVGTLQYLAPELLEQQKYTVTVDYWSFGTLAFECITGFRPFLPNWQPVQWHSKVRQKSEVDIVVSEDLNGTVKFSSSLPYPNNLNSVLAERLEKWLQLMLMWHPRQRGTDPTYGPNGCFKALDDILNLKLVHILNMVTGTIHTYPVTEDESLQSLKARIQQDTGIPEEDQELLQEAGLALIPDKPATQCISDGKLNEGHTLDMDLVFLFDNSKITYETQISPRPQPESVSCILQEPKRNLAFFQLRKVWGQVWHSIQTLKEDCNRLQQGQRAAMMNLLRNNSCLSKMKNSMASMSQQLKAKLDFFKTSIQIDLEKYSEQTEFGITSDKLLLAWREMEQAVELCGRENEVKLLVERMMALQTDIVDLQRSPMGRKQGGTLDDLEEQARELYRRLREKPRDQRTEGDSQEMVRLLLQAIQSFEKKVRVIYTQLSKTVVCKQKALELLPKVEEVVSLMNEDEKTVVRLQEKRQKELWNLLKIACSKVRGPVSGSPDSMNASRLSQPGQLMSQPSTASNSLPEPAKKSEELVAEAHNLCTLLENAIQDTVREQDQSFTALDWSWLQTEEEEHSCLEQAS
Procedure: as §1, §2, §3

First: FAKLAARLYRKALARQLGVAA [MMI-0300]
Second: HRRIKAWLKKIKALARQLGVAA (Mammal) [MMI-0500]
The “% activity” value of the first is higher: 84% for the first, 71% for the second.

For KAFAKLAARLYRKALARQLGVAA [MMI-0400], the “% activity” value was 84%.

biological target: T2, DCAMKL2(h) (Homo sapiens, UniProt Q8N568); test: Kinase Profiling Assay; format: biochemical; conditions: peptide 100 μM
T2 sequence (Q8N568 1-766): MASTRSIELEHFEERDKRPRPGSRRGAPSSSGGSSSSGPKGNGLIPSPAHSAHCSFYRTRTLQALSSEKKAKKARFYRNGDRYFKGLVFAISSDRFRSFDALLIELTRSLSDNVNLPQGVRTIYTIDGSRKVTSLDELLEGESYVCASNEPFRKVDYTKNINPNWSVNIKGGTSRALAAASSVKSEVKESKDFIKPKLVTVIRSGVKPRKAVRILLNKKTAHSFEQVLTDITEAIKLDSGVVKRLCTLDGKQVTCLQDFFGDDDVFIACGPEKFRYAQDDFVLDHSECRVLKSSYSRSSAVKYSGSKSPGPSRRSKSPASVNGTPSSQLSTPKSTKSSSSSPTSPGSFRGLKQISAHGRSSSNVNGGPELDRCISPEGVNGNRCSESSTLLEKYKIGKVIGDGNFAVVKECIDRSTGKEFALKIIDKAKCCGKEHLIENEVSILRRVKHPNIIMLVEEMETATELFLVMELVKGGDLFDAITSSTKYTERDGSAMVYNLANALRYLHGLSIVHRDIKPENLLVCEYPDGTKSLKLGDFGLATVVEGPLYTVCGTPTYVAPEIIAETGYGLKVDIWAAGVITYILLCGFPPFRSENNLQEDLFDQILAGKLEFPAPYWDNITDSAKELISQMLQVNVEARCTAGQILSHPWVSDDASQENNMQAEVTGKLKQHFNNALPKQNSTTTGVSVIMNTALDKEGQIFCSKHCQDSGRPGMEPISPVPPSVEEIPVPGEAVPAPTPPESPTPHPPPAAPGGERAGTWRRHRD
Procedure: as §1, §2, §3

Going from FAKLAARLYRKALARQLGVAA [MMI-0300] to “HRRIKAWLKKIKALARQLGVAA (Mammal) [MMI-0500]”, the “% activity” value falls from 81% to 56%.

Going from KAFAKLAARLYRKALARQLGVAA [MMI-0400] to YARAAARQARAKALARQLGVAA [MMI-0100], the “% activity” value rises from 70% to 146%.

“YARAAARQARAKALNRQLGVA (Mammal) [MMI-0200]” was tested, and the “% activity” value was 131%.

biological target: T3, TSSK1(h) (Homo sapiens, UniProt Q9BXA7); test: Kinase Profiling Assay; format: biochemical; conditions: peptide 100 μM
T3 sequence (Q9BXA7 1-367): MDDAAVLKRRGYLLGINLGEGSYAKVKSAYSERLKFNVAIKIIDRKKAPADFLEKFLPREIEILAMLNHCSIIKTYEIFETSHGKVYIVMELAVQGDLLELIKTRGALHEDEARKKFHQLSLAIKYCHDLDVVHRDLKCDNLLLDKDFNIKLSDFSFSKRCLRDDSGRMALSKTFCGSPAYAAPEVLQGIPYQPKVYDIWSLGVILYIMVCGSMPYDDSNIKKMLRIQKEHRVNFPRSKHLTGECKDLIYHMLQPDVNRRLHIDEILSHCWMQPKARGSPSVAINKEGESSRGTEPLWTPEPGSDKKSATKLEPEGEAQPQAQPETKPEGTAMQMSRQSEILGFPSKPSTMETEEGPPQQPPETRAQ
Procedure: as §1, §2, §3

First: FAKLAARLYRKALARQLGVAA [MMI-0300]
Second: HRRIKAWLKKIKALARQLGVAA (Mammal) [MMI-0500]
The “% activity” value of the first is higher: 79% for the first, 46% for the second.

Going from KAFAKLAARLYRKALARQLGVAA [MMI-0400] to YARAAARQARAKALARQLGVAA [MMI-0100], the “% activity” value rises from 79% to 99%.

For “YARAAARQARAKALNRQLGVA (Mammal) [MMI-0200]”, the “% activity” value was 98%.
